Measurements: the nanobody polyreactivity screen of Harvey et al. (2022)

Test: yeast display, Sf9 membrane polyspecificity reagent, FACS + sequencing; frameworks hold sequencing errors
How it was run: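 Galactose-induced (36–48 hours) yeast carrying a synthetic nanobody display library were exposed to 10% biotinylated, detergent-solubilized Sf9 membrane reagent at 4 °C for 1 hour. FACS followed streptavidin microbead enrichment, using low and high (top ~1%) gates for expression (anti-HA) and reagent binding (streptavidin). Colony PCR, MiSeq 2 × 250 sequencing and CDR-length filtering followed. Labels for polyreactivity reflect the gate of origin.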

Sequence | polyreactivity (PSR sort gate)
QVQLVESGGGLVQAGGSLRLSCAASGSTFKNNAMGWYRQAPGKEREFVASISKRGGSTYYADSEKGRFTISRDNAKNTVYLQMNSLKPEDTAVYYCAAEELRYGLYEYDYWGLGTQVTVSS | high polyreactivity
QVQLVESGGGLVQAGGSLRLSCAASGSTFKNYVMGWYRQAPGKERELVAAISRSGGRTYYADSVKGRFTISRDNAKNTVYLQMYSLKPEVTAVYYCATPDQVELSSYDYWGEGTQVTVSS | high polyreactivity
QVQLVESGGGLVQAGGSLRLSCAASGSTFKPNAMGWYRQAPGKERELVAAITSGSTYYADSVKGRFTISRDNAKNSVYLQMNSLIPEDSAVYYCATSFRGKSPYRNSGSYYFWGQGTQVTVSS | high polyreactivity
QVQLVESGGGLVQAGGSLRLSCAASGSTFKQYAKGWYRQAPGKERELVAAISSVGRTYYADSVKGRFTISRDNAKNTVYLQINSLKPEDTAVYYCNRRWYTHWGQGTQVTVSS | high polyreactivity
QVQLVESGGGLVQAGGSLRLSCAASGSTFKRNAMGWYRQAPGKDRELVAAISFRGGSTYYADSVKGRFTISRDNAKNTVYLQMNSLKPEDTAVYYCAAGIYRIRGGGISFDYWGQGTQVTVSS | high polyreactivity
QVQLVESGGGLVQAGGSLRLSCAASGSTFKRNAMGWYRQAPGKERELVASISKRGGSTYYADSVKGRFTISRDNAKNTVYLQMNSLKPEDTAVYYCAKTWQNGDRNTIGSVYAYYSWGQGTQVTVSS | high polyreactivity
QVQLVESGGGLVQAGGSLRLSCAASGSTFKRNAMGWYRQAPVKERELVATITRRGGSTYADSVKGRFTISRDNAKNTVYLQMNSLKAEDTAVYYCARDGFSGGMDYWGQGTQVTVSS | low polyreactivity
QVQLVESGGGLVQAGGSLRLSCAASGSTFKRYAMGWSRQAPGKERECVAGITWRGGRTYYADSVKGRFKISRDIAKNTVYLQMNSLKPEDTSVYYCAATFYTSSHLAGYYWGQGTQVTVSS | high polyreactivity
QVQLVESGGGLVQAGGSLRLSCAASGSTFKRYAMGWYRQAPGKDRELVASISSGGSPNYADSVKGRFTISRDNAKNTVYLQMNSLKPEDTAVYYCAVSYRSFRYFWERYSSWGQGTQVTVSS | high polyreactivity
QVQLVESGGGLVQAGGSLRLSCAASGSTFKRYAMGWYRQAPGKERELVAAITNGDRTNYADSVKGRFTISRDNAKNTVYLHMNSLKPEDTALYYCAAAYSRYTSRFYYWGQGTQVTVSS | high polyreactivity
QVQLVESGGGLVQAGGSLRLSCAASGSTFKRYAMGWYRQAPGKERELVAAITNGDRTNYADSVKGRFTISRDNAKNTVYLQMNSLKPEDTAVYYCAAAYSRYTSRFYYWGQGTQVTVSS | high polyreactivity
QVQLVESGGGLVQAGGSLRLSCAASGSTFKRYAMGWYRQAPGKERELVASISRSGGSTYYADSVKGRFTISRDNAKNTVYLQMNSLKPEDTAVYYCNARNRVYYTLSGYGYWGQGTQVTVSS | high polyreactivity
QVQLVESGGGLVQAGGSLRLSCAASGSTFKRYAMGWYRQAPGKERELVASISSGGSTNYADSVKGRFTISRDNAKNTVYLQMNSLKREDTAVYYCAVSYRSFRYYWERYYSWGQGTQVTLSS | high polyreactivity
QVQLVESGGGLVQAGGSLRLSCAASGSTFKRYDLGWYRQAPGKERELFAAIRTSGGTTYYADSVKCRFTISRDYAKNNVYLQMNSLKPEDTAVYYCAASKWPRHRTRRYYYWVQGTQVTVSS | high polyreactivity
QVQLVESGGGLVQAGGSLRLSCAASGSTFKRYTMGWYRQAPGKESELVAAISSSGGSTYYADSVKGRFTISRDNAKNTVYLQMNSQKPEDTAVYYCAKGYQRGRDYWGQGTQVTVSS | high polyreactivity
QVQLVESGGGLVQAGGSLRLSCAASGSTFKSYAMGWYRPAPGKERELVAAISSSGGSTYYADSVKGRFTISRDNAKNTVYLQMNSLKPEDTAVYYCNAVWVQGGIGNYWGQGTQVTVSS | low polyreactivity
QVQLVESGGGLVQAGGSLRLSCAASGSTFKTYAMGWYRQAPGKERELVAAITSSGGRTYYADSVKGRFTISRDNAKNTVYLQMNSLKPEDTAVYYCAAGRRSYNQLDYWGQGTQVTVSS | high polyreactivity
QVQLVESGGGLVQAGGSLRLSCAASGSTFKTYTMGWYRQAPGKEREFVAGITSGGSTSYADSVKGRFTISRDNAKNTVYLQMNSLKQEDTAVYYCAAPDGDTSFSDQAYDYWGQGTQVTVSS | low polyreactivity
QVQLVESGGGLVQAGGSLRLSCAASGSTFKTYVMGWYRQAPGKERELVAGISDSGGTTYYADSVKGRFTISRDNAKNTVYLQMNSLKPEDTAVYFCNAAFGVYVATGDSFPWHKKFGYWGQGTQVTVSS | high polyreactivity
QVQLVESGGGLVQAGGSLRLSCAASGSTFKVYAMGWYRQAPGKERELVAAISTGGGSTYYADSVKGRFTISRDNAKNTVSLQMNSLKPEDTAVYYCAAVDRYPYAGYYWGQGTQVTVSS | high polyreactivity
QVQLVESGGGLVQAGGSLRLSCAASGSTFKYNAMGWYRQAPGKEREFVAAISYSGGSTYYADSVKGRFTISRDYAKNTVYLQMNSLKPEDTAVYYCAAYPWERYTWRYVYRGHDYWGQGTQVTVSS | low polyreactivity
QVQLVESGGGLVQAGGSLRLSCAASGSTFKYNAMGWYRQAPGKERELVASISRSGGSTYYADSVKGRFTISRDNAKNTVYLQMNSLKPEDTAVYYCAVRVSSHPVYHYNYWGQGTQVTVSS | high polyreactivity

Sequence | polyreactivity (PSR sort gate)
QVQLVESGGGLVQAGGSLRLSCAASGSTFKYNTMGWYRQAPGKERELVARISWSGTRTYYADSVKGRFTISRDNAKNTVYLQMNSLKPEDTAVYYCAKVSYFWSPYGYDSWGQGTQVTVSS | high polyreactivity
QVQLVESGGGLVQAGGSLRLSCAASGSTFKYYALGWYRQAPGKERELVAVITSGGSTYYADSVKGRFTISRDNAKNTVYFQMNSLKPEDTAVYYCAAGVRAYNWGEYDYWGQGTQVTVSS | low polyreactivity
QVQLVESGGGLVQAGGSLRLSCAASGSTFKYYAMGWYRQAPGKERELVAAISGTGGNTYYADSVKGRFTISRDNAKNTVYLQMNSLKPEDTAVYYCAAGFRRGWAYTTYDYWGQGTQVTVSS | low polyreactivity
QVQLVESGGGLVQAGGSLRLSCAASGSTFKYYTMGWYRQAPGKERELVAAISYSGGSTYYADSVKGRFTISRDNAKNTVYLQMNSLKPEDTAVYYCAALRYADYDYWGQGTQVTVSS | high polyreactivity
QVQLVESGGGLVQAGGSLRLSCAASGSTFLGYAMGWSRQAPGKERELVAAISWSGGSTYYADSVKGRFTISRDNAKNTVYLQMNRLKPEDTAVYYCNAVGYLDFEWGQGTQVTVSS | low polyreactivity
QVQLVESGGGLVQAGGSLRLSCAASGSTFLGYAMGWYRQAPGKERELVAAITYRGTRTYYADSVKGRFTISRDYAKNTVYLQMNSLKPEDTTVYYCAADRYIGTVEYDYWGQGTQVTVSS | high polyreactivity
QVQLVESGGGLVQAGGSLRLSCAASGSTFLNNAMGWSRQAPGEERELVAAISRRGGNTYYADSEKGRFTISRDNAKNTVSLHMNSLKPEDTAVYYCAADLVWTRYFGYAQDYYIEFDYWGQGTQVTVSS | high polyreactivity
QVQLVESGGGLVQAGGSLRLSCAASGSTFLNNAMGWYRQAPGKERELVATITSGGITNYADSVKGRFTISRDNAKNTVYLQMNSLKPEDTAVYYCNADTWGFTYYYWGQGTQVTVSS | low polyreactivity
QVQLVESGGGLVQAGGSLRLSCAASGSTFLNYAMGWSRQAPGKERELVAAISGSTTRTYYADSVKGRFTISRDNAKNPVYLQMNSLKPEDTAVYYCAARVRYPPYRSSDGQRAGYWGQGTQVTVSS | high polyreactivity
QVQLVESGGGLVQAGGSLRLSCAASGSTFLRFAMGWYRQAPGKERELVARISGGGTTYYADSVKGRFTISRDNAKNTVYLQMNSLKPEDTAVYYCNAFYFYVNQGRYEYGYWGQGTQVTVSS | high polyreactivity
QVQLVESGGGLVQAGGSLRLSCAASGSTFLRNAMGWYRQAPGKERELVATISRTGGTTYYADSVKGRFSISRDNAKTTVYLQMNSLKPEDTAVYYCAAYSKYGQHYDYWGQGTQVTVSS | high polyreactivity
QVQLVESGGGLVQAGGSLRLSCAASGSTFLRNAMGWYRQAPGKERELVATISTGSGRTYYADSVKGRFTISRDNAKNTVYLQMNSLKPEDTAVYYCATRVPLGPYYYGMYYWGQGTQVTVSS | high polyreactivity
QVQLVESGGGLVQAGGSLRLSCAASGSTFLRYAMGWYRQAPGKERELVAAISYRDGSTYYADSVKGRFTISRDNAKNTVYLQMNSLKPEDTAVYYCARGSWYRSAYYYWGQGTQVTVSS | high polyreactivity
QVQLVESGGGLVQAGGSLRLSCAASGSTFLRYAMGWYRQAPGKERELVADITTSGGITYYADSVKGRFTISRDNAKNTVYLQMNSLKPEDTAVYYCAARYLPYRRIKYDYWGQGTQVTVSS | low polyreactivity
QVQLVESGGGLVQAGGSLRLSCAASGSTFLSNAMGWYRQAPGKERELVAAISVSGARTYYADSVKGRFTISRDNAKNTVYLQMNSLKPEDTAVYYCNAGTSVRYTESSDYWGQATQVTVSS | high polyreactivity
QVQLVESGGGLVQAGGSLRLSCAASGSTFLSNAMGWYRQAPGKERELVAAITTSGTSTFYADSVKGRFTISRDNAKNTVYLQMNSLKPEDTAVYCAKDYLPYLHFVAPSTGDYDYWGQGTQVTVSS | low polyreactivity
QVQLVESGGGLVQAGGSLRLSCAASGSTFLTNTMGWYRQAPGKERELVAAISKSGGSTYYADSVKGRFTISRDNAKNTVYLQMNSLKPEDTAVYYCAAVRYVHFGYDYWGQGTQVTVSS | high polyreactivity
QVQLVESGGGLVQAGGSLRLSCAASGSTFLTNVMGWYRQAPGKEREFVAAITANGGRTYYADSVKGRFTISRDYAKMTVYLQMNSLKPEDTAVYYAVETAWSYNSNYWFDYWGEGTQVTVSS | high polyreactivity
QVQLVESGGGLVQAGGSLRLSCAASGSTFLVYAMGWYRPAPGKERELVAAITQIDGSTYNADSVKGRFTISRDNSKNTVYLQRHSLKPEDTAVYYCAARYFWTYEYDYWGQGTQVTVSS | low polyreactivity
QVQLVESGGGLVQAGGSLRLSCAASGSTFLVYAMGWYRQAPGKERELVAAINFSGSSTYYADSVKGRFTISRDNAENTVYLQMNSLKPEDTAVYYCAADSLELWYGYFWVKVPYDYWGQGTQVTVSS | low polyreactivity
QVQLVESGGGLVQAGGSLRLSCAASGSTFLWYAMGWYRQAPGKERELVAVIDWSGGSTSYADSVKGRFTISRDNAKNTVYLQMNSLKPEDTAVYYCAADYGHYYGLYYWGQGTQVTVSS | low polyreactivity
